The values below come from article PMC2132825 (The Journal of Cell Biology, 1998).

The experiment has as its target T1, purified recombinant mouse PKCζ (mouse, UniProt Q02956 1-592).
T1 sequence (looked up): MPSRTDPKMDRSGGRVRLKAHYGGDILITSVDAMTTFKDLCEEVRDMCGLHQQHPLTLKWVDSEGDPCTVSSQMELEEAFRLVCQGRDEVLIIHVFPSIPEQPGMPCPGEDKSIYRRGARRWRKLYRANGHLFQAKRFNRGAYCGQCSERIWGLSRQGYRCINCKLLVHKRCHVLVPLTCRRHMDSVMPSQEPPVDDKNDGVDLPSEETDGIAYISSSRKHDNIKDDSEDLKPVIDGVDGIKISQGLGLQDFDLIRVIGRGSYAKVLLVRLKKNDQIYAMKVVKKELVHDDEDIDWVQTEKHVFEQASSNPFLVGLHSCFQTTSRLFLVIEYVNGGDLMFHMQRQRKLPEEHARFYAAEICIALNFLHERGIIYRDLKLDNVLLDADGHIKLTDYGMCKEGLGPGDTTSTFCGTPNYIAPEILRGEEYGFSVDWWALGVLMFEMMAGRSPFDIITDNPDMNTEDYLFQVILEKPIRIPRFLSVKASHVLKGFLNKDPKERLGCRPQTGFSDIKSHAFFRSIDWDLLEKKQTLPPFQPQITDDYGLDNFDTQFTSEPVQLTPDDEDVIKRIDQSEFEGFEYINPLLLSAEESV
In words: far-Western, overlay or dot blot.

B1: GST-ASIP 712/936 (domain or fragment, rat, UniProt Q9Z340 712-936, looked up)
chain: RRISHSLYSGIEGLDESPTRNAALSRIMGESGKCQLSPTVNMPHDDTVMIEDDRLPVLPPHLSDQSSSSSHDDVGFIMTEAGTWAKATISDSADCSLSPDVDPVLAFQREGFGRQSMSEKRTKQFSNASQLDFVKTRKSKSMDLGIADETKLNTVDDQRAGSPNRDVGPSLGLKKSSSLESLQTAVAEVTLNGNIPFHRPRPRIIRGRGCNESFRAAIDKSYDKP
In the case of B1, the binding result is “binds”.
